Measurements taken from publication PMC4287557.

Biological target: JRFL SOSIP trimer (HIV-1 subtype B, truncated at residue 663), negatively selected (HIV-1 subtype B strain JRFL)

B1: PGV04 Fab (Fab, V domains shown)
VH: QVQLVQSGSGVKKPGASVRVSCWTSEDIFERTELIHWVRQAPGQGLEWIGWVKTVTGAVNFGSPDFRQRVSLTRDRDLFTAHMDIRGLTQGDTATYFCARQKFYTGGQGWYFDLWGRGTLIVVSS
VL: EIVLTQSPGTLSLSPGETASLSCTAASYGHMTWYQKKPGQPPKLLIFATSKRASGIPDRFSGSQFGKQYTLTITRMEPEDFARYYCQQLEFFGQGTRLEIR
Q: B1 was tested. Which increase of the melting temperature (Tm) of the JRFL SOSIP-Fab complex over the trimer alone, DSF did it give?
A: The increase of the melting temperature (Tm) of the JRFL SOSIP-Fab complex over the trimer alone, DSF was 3.6 °C.
